Measured values published in patent publication EP3205670.
Substitutions are numbered along the chain they refer to.

B1: Numax Fab (antibody, V domains shown)
VH: QVTLRESGPALVKPTQTLTLTCTFSGFSLSTAGMSVGWIRQPPGKALEWLADIWWDDKKHYNPSLKDRLTISKDTSKNQVVLKVTNMDPADTATYYCARDMIFNFYFDVWGQGTTVTVSS
VL: DIQMTQSPSTLSASVGDRVTITCSASSRVGYMHWYQQKPGKAPKLLIYDTSKLASGVPSRFSGSGSGTEFTLTISSLQPDDFATYYCFQGSGYPFTFGGGTKVEIK
B2: Synagis Fab (antibody, V domains shown)
VH: B1 VH with A32S, H60D, D67S, D100S, F103T, F105W, Q112A
VL: B1 VL with S24K, A25C, S26Q, S27L, R28S, V103L
B3: Synagis (antibody, V domains shown)
VH: B1 VH with A32S, H60D, D67S, D100S, F103T, F105W, Q112A
VL: B1 VL with S24K, A25C, S26Q, S27L, R28S, V103L

Assays:
hRSV F protein (FTM-NN) [1] = target: T1, hRSV F protein (FTM-NN) (hRSV, UniProt P03420); assay: competition, AlphaScreen
T1 sequence (P03420 26-524): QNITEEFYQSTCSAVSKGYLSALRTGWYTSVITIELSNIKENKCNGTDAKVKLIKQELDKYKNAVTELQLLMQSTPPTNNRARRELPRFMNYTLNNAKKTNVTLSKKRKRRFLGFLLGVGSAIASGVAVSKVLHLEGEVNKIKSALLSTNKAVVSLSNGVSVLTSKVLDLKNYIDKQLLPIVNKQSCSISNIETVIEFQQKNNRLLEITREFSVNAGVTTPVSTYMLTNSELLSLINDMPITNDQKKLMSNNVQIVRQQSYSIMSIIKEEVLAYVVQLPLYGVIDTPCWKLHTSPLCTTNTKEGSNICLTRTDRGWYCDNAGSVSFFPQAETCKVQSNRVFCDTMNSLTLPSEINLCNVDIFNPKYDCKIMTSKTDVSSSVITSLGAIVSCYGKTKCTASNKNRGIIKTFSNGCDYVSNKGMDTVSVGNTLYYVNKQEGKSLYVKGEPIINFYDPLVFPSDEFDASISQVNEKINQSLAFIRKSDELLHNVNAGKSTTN

hRSV F protein (FTM-NN) [2] = target: T1, hRSV F protein (FTM-NN); assay: SPR

Binder | IC50 (hRSV F protein (FTM-NN) [1]) [nM] | Kd (hRSV F protein (FTM-NN) [2]) [nM]
B1 | 0.086 | –
B2 | 0.597 | –
B3 | – | 0.64
